{
  "source": "patent US8124835B2",
  "about": "“Acyl-coa-dependent diacylglycerol acyltransferas 1 (DGAT1) gene from Tropaeolum majus, protein encoded thereby and uses thereof” (National Research Council of Canada, priority 2006, dated 2012)",
  "key": {"DGAT activity [1]": {"test_system": "DGAT activity", "experiment": "Substrate preference of recombinant TmDGAT1 expressed in yeast H1246MATα", "assay_type": "biochemical, Tropaeolum majus", "experimental": "FIG. 8. Expression of TmDGAT1 in yeast mutant H1246 MATα. DGAT assays were performed on cell lysates of yeast quadruple mutant (DGAT-, PDAT-, ASAT1^−, ASAT2^−) strain:H1246 MATα transformed with pYES2.1/V5-His-TOPO plasmid only (Control) and TmDGAT1/pYES2.1 in the presence of ^14C-labeled 16:0-, 18:0-, 18:1-, eicosenoyl-(20:1 Δ11) and 22:1 acyl-CoAs and sn-1,2-diolein (18:1 DAG) or sn-1,2-dierucin (22:1 DAG). The enzyme activity is scarcely detected in the yeast strain harboring the empty control vector, and has been subtracted from the enzyme activities detected from the H1246MATα strain expressing the TmDGAT1.\nThe TmDGAT1 ORF (SEQ. ID. NO: 2) in pYES2.1/V5-His-TOPO plasmid was transformed into a quadruple yeast mutant H1246MATα (Sandager et al, 2002) using the S.c. EasyComp™ transformation Kit (Invitrogen). Yeast cells transformed with pYES2.1/V5-His-TOPO plasmid only were used as a control. Transformants were selected by growth on synthetic complete medium lacking uracil (SC-ura), supplemented with 2% (w/v) glucose. The colonies were transferred into liquid SC-ura with 2% (w/v) glucose and grown at 28° C. overnight. The overnight cultures were diluted to an OD of 0.4 in induction medium (SC-ura+2% Galactose+1% Raffinose), and were induced for 24-36 hours at 28° C. Cells were collected and broken using glass beads. The crude protein concentration in the lysates was normalized using the Biorad assay based on the method of (Bradford, 1976) and assayed for DGAT activity. DGAT assays were conducted at pH 7.4, with shaking at 100 rev/min in a water bath at 30° C. for 60 min. […] The ^14C-labelled TAGs were isolated and counted as described above for insect cell expression.\nH1246MATα yeast cells harboring an empty pYES2.1 vector plasmid were used as a control. […] In both cases, the lowest level of TAG was detected when using the saturated 16:0-acyl-CoA. […]"}, "DGAT activity [2]": {"test_system": "DGAT activity", "experiment": "TmDGAT1 expressed in Sf9 insect cells, DGAT assay of membrane fractions", "assay_type": "biochemical, Tropaeolum majus", "conditions": "Sf9 total membrane fraction (100,000×g pellet), 48 hours; sn-1,2-diolein + [1-14C]oleoyl-CoA", "experimental": "FIG. 7. Expression of T. majus DGAT1 in baculovirus insect cells. TmDGAT1 activity was determined using membranes isolated from insect cells infected with wild type baculovirus (Control) and TmDGAT1 recombinant baculovirus in the presence of sn-1,2-diolein and [1-^14C]oleoyl-CoA.\nThe coding region of TmDGAT1 (SEQ. ID. NO: 2) was sub-cloned into pFastBAC for expression of the protein in an insect cell expression system (Bac-to-Bac baculovirus expression system, Invitrogen). Escherichia coli DH10Bac cells were transformed with the construct to generate recombinant bacmid DNA, and then the bacmid DNA was isolated and used to transfect Sf9 insect cells. The virus stock harvested from the transfected cells was used to re-infect fresh Sf9 insect cells. Insect cells (2.5×10^6 per 25 cm^2 dish) were infected with virus and were collected at 48 h by centrifugation and washed twice with PBS (Hobbs et al., 1999). […]\nDGAT assays were conducted at pH 7.4, with shaking at 100 rev/min in a water bath at 30° C. for 60 min. […] The ^14C-labelled TAGs were isolated by TLC on silica gel G plates developed in hexane:diethyl ether:acetic acid (70:30:1 v/v/v/), the radiolabelled TAG bands visualized on a Bioscan AR-2000 radio-TLC scanner using Win-Scan 2D© software (Bioscan Inc., Washington D.C., USA) and the bands scraped and quantified as described by Taylor et al. (1991). […]"}, "[3]": {"conditions": "acceptor sn-1,2-diolein or sn-1,2-dierucin"}},
  "data": [
    {"molecule": "TmDGAT1: Tropaeolum majus acyl-CoA-dependent diacylglycerol acyltransferase 1, 518 amino acids (SEQ ID NO: 3), encoded by ORF SEQ ID NO: 2 (protein, listed as Tropaeolum majus) MAVAESSQNTTTMSGHGDSDLNNFRRRKPSSSVIEPSSSGFTSTNGVPATGHVAENRDQDRVGAMENATGSVNLIGNGGGVVIGNEEKQVGETDIRFTYRPSFPAHRRVRESPLSSDAIFKQSHAGLFNLCIVVLIAVNSRLIIENLMKYGWLIDTGFWFSSRSLGDWSIFMCCLTLPIFPLAAFIVEKLVQRNHISELVAVLLHVIVSTAAVLYPVIVILTCDSVYMSGVVLMLFGCIMWLKLVSYAHTSSDIRTLAKSGYKGDAHPNSTIVSCSYDVSLKSLAYFMVAPTLCYQPSYPRSSCIRKGWVVRQFVKLIVFIGLMGFIIEQYINPIVRNSKHPLKGDFLYAIERVLKLSVPNLYVWLCMFYSFFHLWLNILAELLRFGDREFYKDWWNAKTVAEYWKMWNMPVHRWMVRHLYFPCLRNGIPKEGAIIIAFLVSGAFHELCIAVPCHVFKLWAFIGIMFQVPLVLITNYLQEKFSNSMVGNMIFWFIFCILGQPMCVLLYYHDLINLKEK", "values": [
      {"measurement": "DGAT activity using 20:1-CoA compared to 18:1-CoA", "setting": "DGAT activity [1]; [3]", "value": "about 2 fold"},
      {"measurement": "DGAT activity using 22:1-CoA compared to 18:1-CoA", "setting": "DGAT activity [1]; [3]", "value": "~3", "unit": "fold"},
      {"measurement": "activity with radiolabeled free fatty acids as acyl donors", "setting": "DGAT activity [1]; data not shown", "value": "no activity"},
      {"measurement": "DGAT activity relative to membrane fraction from control cells infected with vector only", "setting": "DGAT activity [2]", "value": "about 10 fold"}
    ]}
  ]
}
